# Data from patent US10428140B2, “Anti-EphA4 antibody” (EISAI R&D MANAGEMENT CO., LTD., priority 2015, dated 2019).
# Positions count from the first letter of the chain named.
# B1: 141 (antibody, V domains shown)
# VH: QVQLVQSGSELKKPGASVKVSCKASGYTFTDYSMHWVRQAPGQGLEWMGWINTETGEPTYADDFKGRFVFSLDTSVSTAYLQISSLKAEDTAVYYCARIPLYYYGSRYWYFDVWGQGTTVTVSS
# VL: DIQMTQSPSSLSASVGDRVTITCRASENIYRNLAWYQQKPGKAPKLLVYAATNLADGVPSRFSGSGSGTDYTLTISSLQPEDFATYYCQHFWGTPWTFGQGTKVEIK
# modifications: synthetic humanized antibody heavy chain variable region sequence; synthetic humanized antibody light chain variable region sequence
# B2: 142 (antibody, V domains shown)
# VH: B1 VH with E46K
# VL: B1 VL
# modifications: synthetic humanized antibody heavy chain variable region sequence; synthetic humanized antibody light chain variable region sequence
# B3: 143 (antibody, V domains shown)
# VH: B1 VH with V2I, E46K
# VL: B1 VL
# modifications: synthetic humanized antibody heavy chain variable region sequence; synthetic humanized antibody light chain variable region sequence
# B4: 152 (antibody, V domains shown)
# VH: B1 VH with D62Q, D63G, K65T
# VL: B1 VL with V48L, P80S
# modifications: synthetic humanized antibody heavy chain variable region sequence; synthetic humanized antibody light chain variable region sequence
# B5: 153 (antibody, V domains shown)
# VH: B1 VH with E46K, D62Q, D63G, K65T
# VL: B1 VL with V48L, P80S
# modifications: synthetic humanized antibody heavy chain variable region sequence; synthetic humanized antibody light chain variable region sequence
# B6: 151 (antibody, V domains shown)
# VH: B1 VH with V2I, E46K, D62Q, D63G, K65T
# VL: B1 VL with V48L, P80S
# modifications: synthetic humanized antibody heavy chain variable region sequence; synthetic humanized antibody light chain variable region sequence
# B7: 154 (antibody, V domains shown)
# VH: B1 VH
# VL: B1 VL with V48L, P80S
# modifications: synthetic humanized antibody heavy chain variable region sequence; synthetic humanized antibody light chain variable region sequence
# B8: 145 (antibody, V domains shown)
# VH: B1 VH with E46K
# VL: B1 VL with V48L, P80S
# modifications: synthetic humanized antibody heavy chain variable region sequence; synthetic humanized antibody light chain variable region sequence
# B9: 155 (antibody, V domains shown)
# VH: B1 VH with V2I, E46K
# VL: B1 VL with V48L, P80S
# modifications: synthetic humanized antibody heavy chain variable region sequence; synthetic humanized antibody light chain variable region sequence
# B10: 157 (antibody, V domains shown)
# VH: B1 VH with D62Q, D63G, K65T
# VL: B1 VL with K45Q, V48L
# modifications: synthetic humanized antibody heavy chain variable region sequence; synthetic humanized antibody light chain variable region sequence
# Molecular target: T1, human EphA1 (Homo sapiens, UniProt P21709)
# T1 construct: a protein of the extracellular region of each human Eph receptor fused with the SEAP protein and the His tag; made in house; host or cells: Expi293F cells (culture supernatant)
# T1 sequence (P21709 26-547 limits assumed): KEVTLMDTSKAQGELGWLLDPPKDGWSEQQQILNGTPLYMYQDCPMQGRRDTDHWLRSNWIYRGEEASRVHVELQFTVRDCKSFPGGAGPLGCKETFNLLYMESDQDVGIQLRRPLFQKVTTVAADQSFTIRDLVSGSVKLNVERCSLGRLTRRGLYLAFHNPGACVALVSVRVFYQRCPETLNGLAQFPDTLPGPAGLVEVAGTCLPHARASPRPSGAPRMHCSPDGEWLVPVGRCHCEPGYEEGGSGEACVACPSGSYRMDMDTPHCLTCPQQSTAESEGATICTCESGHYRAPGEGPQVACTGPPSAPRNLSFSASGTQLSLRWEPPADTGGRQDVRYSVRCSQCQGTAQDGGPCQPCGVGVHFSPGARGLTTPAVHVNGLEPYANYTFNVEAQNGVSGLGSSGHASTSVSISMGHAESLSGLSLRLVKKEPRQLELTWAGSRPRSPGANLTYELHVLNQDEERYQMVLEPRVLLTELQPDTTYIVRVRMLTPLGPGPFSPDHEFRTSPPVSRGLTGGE
# Assay: Selectivity ELISA of humanized antibodies for human Eph receptor
# Format: binding
# Conditions: coated protein 1 nM
# In short: (§1)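 Capture ELISA: anti-6-His coat, 1% BlockAce block, Eph ECD-SEAP-His (1 nM final, Expi293F supernatant) 1 h RT, humanized Ab 1 h RT, HRP anti-IgG 1 h RT, TMB, H2SO4 stop, A450.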
row,Molecule,"hEphA1-SEAP-: absorbance at 450 nm, percentage with respect to hEphA4-SEAP-His as 100% [%]"
1,B1,5.3
2,B2,5.6
3,B3,6.0
4,B4,5.8
5,B5,6.3
6,B6,7.1
7,B7,6.4
8,B8,6.7
9,B9,5.5
10,B10,6.2

# Molecular target: T2, human EphA2 (Homo sapiens, UniProt P29317)
# T2 construct: a protein of the extracellular region of each human Eph receptor fused with the SEAP protein and the His tag; made in house; host or cells: Expi293F cells (culture supernatant)
# T2 sequence (P29317 24-537 limits assumed): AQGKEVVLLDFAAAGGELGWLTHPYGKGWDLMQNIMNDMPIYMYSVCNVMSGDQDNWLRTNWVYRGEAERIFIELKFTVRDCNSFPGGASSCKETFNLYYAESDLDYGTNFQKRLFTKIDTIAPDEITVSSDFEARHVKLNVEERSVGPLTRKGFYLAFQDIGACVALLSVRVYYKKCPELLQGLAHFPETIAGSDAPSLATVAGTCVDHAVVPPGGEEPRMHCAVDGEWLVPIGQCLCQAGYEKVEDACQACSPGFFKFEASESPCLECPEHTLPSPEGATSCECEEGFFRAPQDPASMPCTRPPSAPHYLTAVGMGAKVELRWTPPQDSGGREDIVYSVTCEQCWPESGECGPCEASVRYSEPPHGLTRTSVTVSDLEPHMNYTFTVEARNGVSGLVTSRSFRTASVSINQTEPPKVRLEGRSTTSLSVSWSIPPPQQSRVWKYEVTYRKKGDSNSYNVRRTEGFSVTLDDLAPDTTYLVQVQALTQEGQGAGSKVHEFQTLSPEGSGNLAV
# Assay: as above
# Format: binding
# Conditions: coated protein 1 nM
# In short: as §1
row,Molecule,"hEphA2-SEAP-: absorbance at 450 nm, percentage with respect to hEphA4-SEAP-His as 100% [%]"
1,B1,5.2
2,B2,5.6
3,B3,5.7
4,B4,5.8
5,B5,6.0
6,B6,6.9
7,B7,6.2
8,B8,6.5
9,B9,5.5
10,B10,6.3

# Molecular target: T3, human EphA4 (Homo sapiens, UniProt P54764)
# T3 construct: made in house; not restated for the human SEAP-His protein
# T3 sequence (P54764 20-547): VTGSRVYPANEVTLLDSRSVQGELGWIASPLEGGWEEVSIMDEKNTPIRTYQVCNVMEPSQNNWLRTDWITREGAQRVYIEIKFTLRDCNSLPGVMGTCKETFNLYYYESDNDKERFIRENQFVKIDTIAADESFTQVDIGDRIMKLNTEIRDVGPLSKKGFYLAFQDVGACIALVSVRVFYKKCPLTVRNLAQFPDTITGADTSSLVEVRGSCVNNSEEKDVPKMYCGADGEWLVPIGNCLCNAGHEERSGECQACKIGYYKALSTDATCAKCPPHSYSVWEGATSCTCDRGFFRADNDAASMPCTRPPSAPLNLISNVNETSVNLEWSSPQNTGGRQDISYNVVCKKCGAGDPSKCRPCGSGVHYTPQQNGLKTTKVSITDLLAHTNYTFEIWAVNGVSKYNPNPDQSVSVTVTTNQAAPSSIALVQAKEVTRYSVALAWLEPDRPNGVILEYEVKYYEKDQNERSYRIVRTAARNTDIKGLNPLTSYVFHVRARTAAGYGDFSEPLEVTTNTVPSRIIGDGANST
# Assay: as above
# Format: binding
# Conditions: coated protein 1 nM; reference set to 100%
# In short: as §1
row,Molecule,"hEphA4-SEAP-: absorbance at 450 nm, percentage with respect to hEphA4-SEAP-His as 100% [%]"
1,B1,100
2,B2,100
3,B3,100
4,B4,100
5,B5,100
6,B6,100
7,B7,100
8,B8,100
9,B9,100
10,B10,100

# Molecular target: T4, human EphA6 (Homo sapiens, UniProt Q9UF33)
# T4 construct: a protein of the extracellular region of each human Eph receptor fused with the SEAP protein and the His tag; made in house; host or cells: Expi293F cells (culture supernatant)
# T4 sequence (Q9UF33 23-550 limits assumed): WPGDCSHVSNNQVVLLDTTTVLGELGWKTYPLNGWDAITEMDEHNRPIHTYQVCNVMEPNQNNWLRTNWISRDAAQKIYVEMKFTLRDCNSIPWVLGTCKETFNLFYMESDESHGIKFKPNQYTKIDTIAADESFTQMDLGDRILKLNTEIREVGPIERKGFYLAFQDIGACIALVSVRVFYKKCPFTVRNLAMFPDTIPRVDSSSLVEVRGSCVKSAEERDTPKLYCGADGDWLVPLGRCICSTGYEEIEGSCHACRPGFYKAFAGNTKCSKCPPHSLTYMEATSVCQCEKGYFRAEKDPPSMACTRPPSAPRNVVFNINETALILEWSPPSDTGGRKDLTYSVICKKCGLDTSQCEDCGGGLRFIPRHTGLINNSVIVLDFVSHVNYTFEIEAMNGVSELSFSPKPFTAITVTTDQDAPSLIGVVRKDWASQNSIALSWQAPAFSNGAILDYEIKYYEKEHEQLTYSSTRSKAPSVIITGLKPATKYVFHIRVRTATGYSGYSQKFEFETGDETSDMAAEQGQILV
# Assay: as above
# Format: binding
# Conditions: coated protein 1 nM
# In short: as §1
row,Molecule,"hEphA6-SEAP-: absorbance at 450 nm, percentage with respect to hEphA4-SEAP-His as 100% [%]"
1,B1,9.0
2,B2,9.7
3,B3,9.9
4,B4,8.3
5,B5,8.7
6,B6,9.9
7,B7,8.4
8,B8,8.6
9,B9,7.2
10,B10,9.0

# Molecular target: T5, human EphA8 (Homo sapiens, UniProt P29322)
# T5 construct: a protein of the extracellular region of each human Eph receptor fused with the SEAP protein and the His tag; made in house; host or cells: Expi293F cells (culture supernatant)
# T5 sequence (P29322 28-542 limits assumed): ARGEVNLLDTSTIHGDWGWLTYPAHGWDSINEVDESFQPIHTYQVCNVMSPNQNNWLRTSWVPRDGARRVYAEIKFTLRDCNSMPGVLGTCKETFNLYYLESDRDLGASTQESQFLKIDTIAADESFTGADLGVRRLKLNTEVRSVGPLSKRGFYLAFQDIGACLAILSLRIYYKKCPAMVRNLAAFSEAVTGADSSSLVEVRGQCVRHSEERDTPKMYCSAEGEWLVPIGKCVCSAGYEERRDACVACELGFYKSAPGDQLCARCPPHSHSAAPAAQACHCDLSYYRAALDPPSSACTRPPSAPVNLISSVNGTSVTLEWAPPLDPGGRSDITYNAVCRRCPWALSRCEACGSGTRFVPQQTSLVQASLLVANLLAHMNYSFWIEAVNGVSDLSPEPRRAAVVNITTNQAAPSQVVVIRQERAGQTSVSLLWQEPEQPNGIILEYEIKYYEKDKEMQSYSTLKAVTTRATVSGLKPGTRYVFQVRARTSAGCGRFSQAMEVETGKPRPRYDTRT
# Assay: as above
# Format: binding
# Conditions: coated protein 1 nM
# In short: as §1
row,Molecule,"hEphA8-SEAP-: absorbance at 450 nm, percentage with respect to hEphA4-SEAP-His as 100% [%]"
1,B1,5.5
2,B2,5.7
3,B3,6.0
4,B4,6.0
5,B5,6.1
6,B6,6.9
7,B7,5.5
8,B8,6.6
9,B9,5.5
10,B10,6.0
